B1: LINE1-mini (parent)
chain: GGCAGAGCUCAACACAGCGUGGCAAAGUGGCUGUGGCUAGACUGCC

Variants of B1 are the subject of this series. The series is described as follows: self-cleavage, relative activity (ratio to wild type); higher = more cleavage; in vitro, sequencing; the parent is a self-cleaving ribozyme.
Take G21C U43A: the self-cleavage was 0.07.
In the case of G21C U43C, the self-cleavage worked out at 0.06.
Regarding G21C U43G, the self-cleavage was 0.02.
Take G21C C45U: the self-cleavage is 1.56.
In the case of G21C C45G, the self-cleavage was 0.07.
Regarding G21C C45A, the self-cleavage worked out at 0.49.
Consider G21U A25U, for which the self-cleavage amounted to 1.88.
For the variant G21U A25C, the self-cleavage worked out at 1.44.
On to G21U A25G, for which the self-cleavage came to 1.23.
In the case of G21U C23U, the self-cleavage was determined as 1.38.
Turning to G21U C23G, the self-cleavage was determined as 0.9.
In the case of G21U C23A it was 1.24.
Regarding G21A G35A, the self-cleavage stood at 0.15.
For G21A G35U, the self-cleavage is 0.35.
Turning to G21A G35C, the self-cleavage is 0.19.
In the case of G21A G44U, the self-cleavage came to 0.56.
In the case of G21A G44C, the self-cleavage was determined as 0.52.
As to G21A G44A, the self-cleavage amounted to 0.98.
In the case of G21U C31U it was 0.3.
Regarding G21U C31A, the self-cleavage was found to be 0.19.
As to G21U C31G, the self-cleavage was 0.08.
As to G21A U38A, the self-cleavage worked out at 0.89.
Take G21A U38C: the self-cleavage is 1.12.
As to G21A U38G, the self-cleavage is 0.03.
Regarding G21U G30A, the self-cleavage came out at 1.81.
On to G21U G30U, for which the self-cleavage came out at 1.
In the case of G21U G30C it was 2.18; in that of G21A U28A, 1.94; in that of G21A U28C, 1.44.
For G21A U28G, the self-cleavage was 1.2.
As for G21C G29A, the figure is 0.5.
G21C G29U: the self-cleavage was found to be 0.48.
Take G21C G29C: the self-cleavage amounted to 0.55.
G21A U32C: the self-cleavage was found to be 0.48.
As for G21A U32A, the figure is 0.08.
In the case of G21A U32G it was 0.1; in that of G21U C42U, 0.53; in that of G21U C42A, 0.23.
For G21U C42G, the self-cleavage turned out to be 0.04.
In the case of G21C A24G it was 0.44.
On to G21C A24U, for which the self-cleavage came out at 0.63.
With G21C A24C, the self-cleavage came out at 0.43.
As for G21U C46G, the figure is 1.29; as for G21U C46U, 1.13.
In the case of G21U C46A it was 1.14.
For the variant G21A G29U, the self-cleavage was 2.19.
Consider G21A G29C, for which the self-cleavage is 0.63.
As for G21A G29A, the self-cleavage turned out to be 1.
G21C G44U: the self-cleavage was 0.28.
As for G21C G44A, the figure is 0.34; as for G21C G44C, 0.4.
Consider G21C G35U, for which the self-cleavage was 0.16.
With G21C G35C, the self-cleavage was 0.08.
As to G21C G35A, the self-cleavage amounted to 0.16.
Take G21C G36A: the self-cleavage worked out at 0.1.
In the case of G21C G36C it was 0.03.
Take G21C G36U: the self-cleavage was 0.03.
As to G21C G30U, the self-cleavage was 1.1.
On to G21C G30C, for which the self-cleavage turned out to be 1.62.
With G21C G30A, the self-cleavage was found to be 1.86.
Turning to G21U G33C, the self-cleavage was 0.08.
In the case of G21U G33A it was 0.26.
On to G21C C46U, for which the self-cleavage came out at 0.83.
For G21C C46G, the self-cleavage amounted to 0.51.
Turning to G21C C46A, the self-cleavage came to 1.13.
Consider G21U G27U, for which the self-cleavage was 0.54.
In the case of G21U G27A it was 0.45.
G21U G27C: the self-cleavage came to 0.54.
Regarding G21U G29A, the self-cleavage came to 0.63.
As to G21U G29C, the self-cleavage stood at 0.4.
Take G21U G29U: the self-cleavage is 0.55.
Consider G21C A25C, for which the self-cleavage is 0.85.
As for G21C A25U, the figure is 1.14.
In the case of G21C A25G, the self-cleavage stood at 0.94.
Turning to G21C C23G, the self-cleavage is 0.53.
With G21C C23A, the self-cleavage was 0.43.
In the case of G21C C23U it was 1.27.
Turning to G21C C37A, the self-cleavage stood at 0.02.
In the case of G21C C37G, the self-cleavage is 0.05.
As for G21C C37U, the figure is 0.01; as for G21U A39U, 0.63; as for G21U A39C, 0.28.
In the case of G21U A39G, the self-cleavage amounted to 0.08.
As for G21A U43G, the figure is 0.14; as for G21A U43C, 0.18.
For G21A U43A, the self-cleavage amounted to 0.17.
Regarding G21U C37G, the self-cleavage came to 0.04.
As for G21U C37A, the self-cleavage worked out at 0.09.
In the case of G21U C37U it was 0.06; in that of G21A G36A, 0.3.
With G21A G36C, the self-cleavage came to 0.1.
In the case of G21A G36U, the self-cleavage came out at 0.15.
Regarding G21C A26G, the self-cleavage is 0.35.
Take G21C A26U: the self-cleavage amounted to 1.57.
Turning to G21C A26C, the self-cleavage was 1.03.
As to G21C C31U, the self-cleavage was 0.3.
For G21C C31A, the self-cleavage is 0.19.
In the case of G21C C31G it was 0.09; in that of G21A G40U, 0.19.
For the variant G21A G40A, the self-cleavage was found to be 0.29.
Turning to G21A G40C, the self-cleavage is 0.22.
G21C G33U: the self-cleavage was 0.11.
As for G21C G33A, the figure is 0.8; as for G21C G33C, 0.05; as for G21C G27C, 0.52.
As for G21C G27U, the self-cleavage was 0.84.
Regarding G21C G27A, the self-cleavage amounted to 0.84.
Regarding G21A G27A, the self-cleavage was determined as 1.01.
In the case of G21A G27C, the self-cleavage came to 1.22.
Take G21A G27U: the self-cleavage came out at 1.35.
For the variant G21C A41U, the self-cleavage turned out to be 0.5.
Take G21C A41G: the self-cleavage was found to be 0.32.
Regarding G21C A41C, the self-cleavage turned out to be 0.07.
Consider G21U A41C, for which the self-cleavage came to 0.06.
With G21U A41G, the self-cleavage turned out to be 0.28.
Regarding G21U A41U, the self-cleavage turned out to be 0.9.
In the case of G21C U28A, the self-cleavage turned out to be 0.3.
G21C U28G: the self-cleavage turned out to be 0.45.
For G21C U28C, the self-cleavage was 1.39.
With G21C, the self-cleavage is 0.72.
With G21U, the self-cleavage was found to be 1.06.
As for G21C U34G, the figure is 0.24.
For G21C U34C, the self-cleavage amounted to 0.19.
As for G21C U34A, the figure is 0.12; as for G21C G40A, 0.04.
In the case of G21C G40U, the self-cleavage turned out to be 0.15.
G21C G40C: the self-cleavage amounted to 0.07.
Turning to G21A G22C, the self-cleavage came out at 0.38.
Consider G21A G22U, for which the self-cleavage is 0.56.
Regarding G21A G22A, the self-cleavage was determined as 1.3.
In the case of G21U G22C, the self-cleavage was determined as 1.71.
In the case of G21U G22A it was 1.03; in that of G21U G22U, 1.4; in that of G21A G33C, 0.12.
In the case of G21A G33A it was 0.08; in that of G21A G33U, 0.26; in that of G21C U32G, 0.23.
In the case of G21C U32A it was 0.13.
Regarding G21C U32C, the self-cleavage amounted to 1.82.
For G21C U38C, the self-cleavage was found to be 0.48.
As for G21C U38G, the figure is 0.02.
Regarding G21C U38A, the self-cleavage amounted to 0.21.
With G21U A26U, the self-cleavage came out at 1.93.
On to G21U A26C, for which the self-cleavage came to 1.29.
With G21U A26G, the self-cleavage was found to be 1.29.
For G21C C42U, the self-cleavage was 0.36.
As to G21C C42A, the self-cleavage was 0.19.
As for G21U A24C, the figure is 0.51; as for G21U A24U, 1.01; as for G21U A24G, 1.37.
As for G21A U34G, the figure is 0.64.
Consider G21A U34A, for which the self-cleavage was 0.08.
As to G21A U34C, the self-cleavage worked out at 0.14.
As for G21C A39U, the figure is 0.81; as for G21C A39G, 0.05; as for G21C A39C, 0.07.
Consider G21U C45U, for which the self-cleavage was determined as 1.62.
G21U C45A: the self-cleavage was determined as 0.68.
With G21U C45G, the self-cleavage came to 0.18.
Turning to G21A G30C, the self-cleavage was determined as 0.61.
As to G21A G30A, the self-cleavage is 1.73.
Take G21A G30U: the self-cleavage was found to be 2.01.
As for G21C G22A, the self-cleavage was 0.48.
For G21C G22U, the self-cleavage is 0.46.
With G21C G22C, the self-cleavage was found to be 0.57.
With G21A C46U, the self-cleavage worked out at 1.39.
In the case of G21A C46G it was 1.5.

These data come from the RNAGym collection of RNA variant scans (doi:10.7554/elife.90254).
